Data taken from patent US20090053138A1, “Stabilized Aptamers to Platelet Derived Growth Factor and their Use as Oncology Therapeutics” (priority 2002, published 2009).
Strand notation (5' to 3'): a small letter for the sugar, then the base; units joined by * are phosphorothioate-linked, units joined directly phosphodiester-linked; [ ] holds rarer units or linkages, { } end groups; capitals alone tell only the bases. r = 2'-OH (RNA); f = 2'-fluoro

B1: ARX33P1.D2: PDGF-AA (short form) aptamer, 2′-fluoro pyrimidines (SEQ ID NO: 78) (nucleic acid)
chain: rGrGrGrArArArArGfCrGrArAfUfCrAfUrAfCrAfCrArArGrAfCfCrGrGrGrArAfCfUfCrGrGrAfUfUfCfUfUfCrGfCrAfUrGfUrGrGrAfUrGfCrGrAfUfCrArGfUrAfUrGfCfUfCfCrGfCfCrArGrArGrAfCfCrArAfCfCrGrArGrArA
B2: ARX33P1.E5: PDGF-AA (short form) aptamer, 2′-fluoro pyrimidines (SEQ ID NO: 79) (nucleic acid)
chain: rGrGrGrArArArArGfCrGrArAfUfCrAfUrAfCrAfCrArArGrAfCfCrGrGrGrArAfCfUfCrGrGrAfUfUfCfUfUfCrAfCrAfUrGfUrGrGrAfUrGfUrGrAfUfCrArGfUrAfUrGfCfUfCfCrGfCfCrArGrArGrAfCfCrArAfCfCrGrArGrArA
B3: ARX33P1.E10: PDGF-AA (short form) aptamer, 2′-fluoro pyrimidines (SEQ ID NO: 80) (nucleic acid)
chain: rGrGrGrArArArArGfCrGrArAfUfCrAfUrAfCrAfCrArArGrAfCfCrGrGrArArAfCfUfCrGrGrAfUfUfCfUfUfCrGfCrAfUrGfUrGrGrAfUrGfCrGrAfUfCrArGfUrAfUrGfCfUfCfCrGfCfCrArGrArGrAfCfCrArAfCfCrGrArGrArA
B4: ARX33P1.D1: PDGF-AA selection clone, 2′-fluoro pyrimidines (SEQ ID NO: 77) (nucleic acid)
chain: rGrGrGrArArArArGfCrGrArAfUfCrAfUrAfCrAfCrArArGrAfUfCrGfCfCrArGrGrArGfCrArArArGfUfCrAfCrGrGrArGrGrArGfUrGrGrGrGrGfUrAfCrGrArAfUrGfCfUfCfCrGfCfCrArGrArGrAfCfCrArAfCfCrGrArGrArA
modifications: aptamer
B5: ARX33P1.E11: PDGF-AA selection clone, 2′-fluoro pyrimidines (SEQ ID NO: 81) (nucleic acid)
chain: rGrGrGrArArArArGfCrGrArAfUfCrAfUrAfCrAfCrArArGrArGrArGfUrGrGrArGrGrArGrGfUrAfUrGfUrAfUrGrGfUfUfUrGfUrGfCrGfUfCfUrGrGfUrGfCrGrGfUrGfCfUfCfCrGfCfCrArGrArGrAfCfCrArAfCfCrGrArGrArA
modifications: aptamer

Tests used:
[1] = target: T1, PDGF-AA (human short form) (Homo sapiens, UniProt P04085); experiment: Dot blot binding assay, PDGF-AA human short form; conditions: in the presence of 0.1 mg/mL tRNA
T1 construct: purchased Roche Biomedical
Experimental: (§1) Dot blot binding assays were performed throughout the selection to monitor the protein binding affinity of the pool. Trace ^32P-labeled RNA was combined with PDGF-AA and incubated at room temperature for 30 min in 1×SHMCK plus 0.1 mg/ml tRNA for a final volume of 20 μl. The reaction was added to a dot blot apparatus (Schleicher and Schuell Minifold-1 Dot Blot, Acrylic), assembled (from top to bottom) with nitrocellulose, nylon, and gel blot membranes. RNA that is bound to protein is captured on the nitrocellulose filter, whereas the non-protein bound RNA is captured on the nylon filter. When a significant positive ratio of binding of RNA in the presence of PDGF-AA versus in the absence of PDGF-AA was seen, the pool was cloned using the TOPO TA cloning kit (Invitrogen, Carlsbad. CA) according to the manufacturer's instructions. The Round 10 pool template was cloned, and 17 sequences were obtained. Only five different sequences were seen, with two major families and one unique sequence (not of the two families). […] Clones with high affinity to PDGF-AA were prepped and screened for functionality in cell-based assays.

PDGF-AA (rat) = PDGF-AA (rat) (Rattus norvegicus, UniProt P28576); experiment: Dot blot binding assay, PDGF-AA rat; conditions: in the presence of 0.1 mg/mL tRNA
Experimental: as §1

PDGF-AA = target: T2, PDGF-AA (Homo sapiens, UniProt P04085); experiment: 3T3 proliferation assay (PDGF-AA induced); type: cell-based; conditions: aptamer 0-1 uM, PDGF-AA 50 ng/ml
T2 construct: purchased R&D Systems
Experimental: The assay was set up as previously described, using a titration of PDGF-AA aptamer (0-1 uM) against a constant concentration (50 ng/ml) of PDGF-AA protein (R&D Systems).

| Molecule | Kd [1] | Kd (PDGF-AA (rat)) | inhibition of PDGF-AA induced 3T3 cell proliferation (PDGF-AA) | PDGF-AA (human short form) Kd (nM) [1] | PDGF-AA (rat) Kd (nM) (PDGF-AA (rat)) |
| --- | --- | --- | --- | --- | --- |
| B1 | 104 nM | 51.7 nM | do inhibit PDGF-AA induced 3T3 cell proliferation, but are not very potent |  |  |
| B2 | 117 nM | 57.4 nM | do inhibit PDGF-AA induced 3T3 cell proliferation, but are not very potent |  |  |
| B3 | 133 nM | 47.1 nM | do inhibit PDGF-AA induced 3T3 cell proliferation, but are not very potent |  |  |
| B4 |  |  |  | N.B. | N.B. |
| B5 |  |  |  | N.B. | N.B. |
